EC50 data for three molecules are collected here from patent US20220204567A1 (published 2022).

Common to all, as to experiment: ELISA
The target of assay [1] is wild type HA ectodomain of H3 A/Indiana/11/2011 with C-terminal Foldon trimerization domain.
Assay [2] has as its target wild type HA ectodomain of H3 A/Hong Kong/1/1968 with C-terminal Foldon trimerization domain.
Assay [3] concerns the target wild type HA ectodomain of H1 A/Michigan/45/2015 with C-terminal Foldon trimerization domain.
Assay [4] addresses UFV4239, wild type HA ectodomain of H1 A/California/07/2009 without Foldon trimerization domain.

One may read the EC50 as the concentration giving half of the maximal effect. A low value points to an effect from little substance.

Some results are limits rather than exact numbers.

B1: CR9114 (antibody, V domains shown)
VH: QVQLVQSGAEVKKPGSSVKVSCKSSGGTSNNYAISWVRQAPGQGLDWMGGISPIFGSTAYAQKFQGRVTISADIFSNTAYMELNSLTSEDTAVYFCARHGNYYYYSGMDVWGQGTTVTVSS
VL: SYVLTQPPAVSGTPGQRVTISCSGSDSNIGRRSVNWYQQFPGTAPKLLIYSNDQRPSVVPDRFSGSKSGTSASLAISGLQSEDEAEYYCAAWDDSLKGAVFGGGTQLTVL
With B1, the EC50 in assay [1] was found to be 25 nM; in assay [2], 12.7 nM.

B2: CR6261 (antibody, V domains shown)
VH: EVQLVESGAEVKKPGSSVKVSCKASGGPFRSYAISWVRQAPGQGPEWMGGIIPIFGTTKYAPKFQGRVTITADDFAGTVYMELSSLRSEDTAMYYCAKHMGYQVRETMDVWGKGTTVTVSS
VL: QSVLTQPPSVSAAPGQKVTISCSGSSSNIGNDYVSWYQQLPGTAPKLLIYDNNKRPSGIPDRFSGSKSGTSATLGITGLQTGDEANYYCATWDRRPTAYVVFGGGTKLTVL
B2: the EC50 in assay [3] is 0.6 nM; in assay [1] it was above 70 nM; in assay [2], above 70 nM; in assay [4], 1 nM.

B3: CR8020 (antibody, V domains shown)
VH: QVQLQQSGAEVKTPGASVKVSCKASGYTFTSFGVSWIRQAPGQGLEWIGWISAYNGDTYYAQKFQARVTMTTDTSTTTAYMEMRSLRSDDTAVYYCAREPPLFYSSWSLDNWGQGTLVTVSS
VL: EIVLTQSPGTLSLSPGERATLSCRASQSVSMNYLAWFQQKPGQAPRLLIYGASRRATGIPDRISGSGSGTDFTLTISRLEPADFAVYYCQQYGTSPRTFGQGAKVEIK
On to B3, for which the EC50 in assay [3] is above 70 nM; in assay [1], 1.9 nM; in assay [2] it was 1.6 nM; in assay [4], above 70 nM.
